The target of the assay is ETS1 transcription factor (endogenous, FP-RMS cells) (human (endogenous in Rh30 and Rh41)) (UniProt P14921). Nature of the assay: co-IP; endogenous proteins from Rh30 and Rh41 cells, IP with ETS1 antibody (rabbit IgG as negative control), immunoblot; also with Ethidium Bromide or Benzonase in the IP; also cells pre-treated 16 hours with 1 µM YK-4-279 or DMSO and the same included in the IP reaction, recovery by densitometry normalized to ETS1.

The text below walks through data of article PMC11700839.

Chain of UniProt P14921 (P14921 whole entry): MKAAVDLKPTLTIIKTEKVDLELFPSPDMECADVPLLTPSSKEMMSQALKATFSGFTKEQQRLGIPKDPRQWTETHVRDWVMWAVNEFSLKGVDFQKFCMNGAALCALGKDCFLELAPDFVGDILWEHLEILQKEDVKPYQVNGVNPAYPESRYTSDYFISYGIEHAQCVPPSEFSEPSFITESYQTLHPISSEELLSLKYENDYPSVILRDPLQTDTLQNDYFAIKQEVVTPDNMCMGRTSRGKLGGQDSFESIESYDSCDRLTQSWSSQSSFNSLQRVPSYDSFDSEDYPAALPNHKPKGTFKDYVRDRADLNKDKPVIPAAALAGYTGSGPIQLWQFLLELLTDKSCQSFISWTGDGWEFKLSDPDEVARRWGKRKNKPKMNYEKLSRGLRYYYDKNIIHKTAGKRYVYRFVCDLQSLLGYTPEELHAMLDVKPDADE

For “PAX3-FOXO1 oncofusion (endogenous, FP-RMS cells) (natural protein)”, the co-immunoprecipitated PAX3-FOXO1 with 1 µM YK-4-279, percent of DMSO control (Rh30 cells) (% of DMSO control) was 50 and the co-immunoprecipitated PAX3-FOXO1 with 1 µM YK-4-279, percent of DMSO control (Rh41 cells) (% of DMSO control) turned out to be 65.
